From patent US20210388087A1 (Chugai, published 2021)

The binders below were run against T1, CD3 epsilon homodimer protein (UniProt P07766 23-126) (assay: SPR, antibody over immobilised CD3e homodimer;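 further: SPR at 25 °C with CD3 epsilon homodimer amine-coupled to a CM4 sensor chip and antibody flowed over as analyte in HBS-EP+ running buffer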).
T1 construct: also called CD3 (CD3 epsilon)
T1 sequence (P07766 23-126): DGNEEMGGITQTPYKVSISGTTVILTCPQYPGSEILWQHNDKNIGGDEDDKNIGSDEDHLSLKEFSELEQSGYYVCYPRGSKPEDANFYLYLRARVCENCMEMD

| Binder | KD ratio to GLS3000 |
| --- | --- |
| CE115HA000/GLS3000 K74T (antibody, IgG1, name in Kabat numbering, V domains shown, one-arm IgG1) VH: QVQLVESGGGVVQPGRSLRLSCAASGFTFSNAWMHWVRQAPGKGLEWVAQIKAKSNNYATYYAESVKGRFTISRDDSKNSLYLQMNSLKTEDTAVYYCRYVHYGAYYGVDAWGQGTTVTVSS VL: DIVMTQSPLSLPVTPGEPASISCRSSQSLVHSNRNTYLHWYQQKPGQAPRLLIYKVSNRFSGVPDRFSGSGSGTDFTLTISRVEAEDVGVYYCGQGTQVPYTFGQGTKLEIK | 0.85 |
| CE115HA000/GLS3000 L27bD (antibody, IgG1, name in Kabat numbering, V domains shown, one-arm IgG1) VH: QVQLVESGGGVVQPGRSLRLSCAASGFTFSNAWMHWVRQAPGKGLEWVAQIKAKSNNYATYYAESVKGRFTISRDDSKNSLYLQMNSLKTEDTAVYYCRYVHYGAYYGVDAWGQGTTVTVSS VL: DIVMTQSPLSLPVTPGEPASISCRSSQSDVHSNRNTYLHWYQQKPGQAPRLLIYKVSNRFSGVPDRFSGSGSGTDFTLKISRVEAEDVGVYYCGQGTQVPYTFGQGTKLEIK | 25.1 |
| CE115HA000/GLS3000 K107E (antibody, IgG1, name in Kabat numbering, V domains shown, one-arm IgG1) VH: QVQLVESGGGVVQPGRSLRLSCAASGFTFSNAWMHWVRQAPGKGLEWVAQIKAKSNNYATYYAESVKGRFTISRDDSKNSLYLQMNSLKTEDTAVYYCRYVHYGAYYGVDAWGQGTTVTVSS VL: DIVMTQSPLSLPVTPGEPASISCRSSQSLVHSNRNTYLHWYQQKPGQAPRLLIYKVSNRFSGVPDRFSGSGSGTDFTLKISRVEAEDVGVYYCGQGTQVPYTFGQGTKLEIE | 0.95 |
| CE115HA000/GLS3000 L33F (antibody, IgG1, name in Kabat numbering, V domains shown, one-arm IgG1) VH: QVQLVESGGGVVQPGRSLRLSCAASGFTFSNAWMHWVRQAPGKGLEWVAQIKAKSNNYATYYAESVKGRFTISRDDSKNSLYLQMNSLKTEDTAVYYCRYVHYGAYYGVDAWGQGTTVTVSS VL: DIVMTQSPLSLPVTPGEPASISCRSSQSLVHSNRNTYFHWYQQKPGQAPRLLIYKVSNRFSGVPDRFSGSGSGTDFTLKISRVEAEDVGVYYCGQGTQVPYTFGQGTKLEIK | 0.65 |
| CE115HA000/GLS3000 L33I (antibody, IgG1, name in Kabat numbering, V domains shown, one-arm IgG1) VH: QVQLVESGGGVVQPGRSLRLSCAASGFTFSNAWMHWVRQAPGKGLEWVAQIKAKSNNYATYYAESVKGRFTISRDDSKNSLYLQMNSLKTEDTAVYYCRYVHYGAYYGVDAWGQGTTVTVSS VL: DIVMTQSPLSLPVTPGEPASISCRSSQSLVHSNRNTYIHWYQQKPGQAPRLLIYKVSNRFSGVPDRFSGSGSGTDFTLKISRVEAEDVGVYYCGQGTQVPYTFGQGTKLEIK | 0.86 |
| CE115HA000/GLS3000 L27bF (antibody, IgG1, name in Kabat numbering, V domains shown, one-arm IgG1) VH: QVQLVESGGGVVQPGRSLRLSCAASGFTFSNAWMHWVRQAPGKGLEWVAQIKAKSNNYATYYAESVKGRFTISRDDSKNSLYLQMNSLKTEDTAVYYCRYVHYGAYYGVDAWGQGTTVTVSS VL: DIVMTQSPLSLPVTPGEPASISCRSSQSFVHSNRNTYLHWYQQKPGQAPRLLIYKVSNRFSGVPDRFSGSGSGTDFTLKISRVEAEDVGVYYCGQGTQVPYTFGQGTKLEIK | 2.67 |
| CE115HA000/GLS3000 L27bP (antibody, IgG1, name in Kabat numbering, V domains shown, one-arm IgG1) VH: QVQLVESGGGVVQPGRSLRLSCAASGFTFSNAWMHWVRQAPGKGLEWVAQIKAKSNNYATYYAESVKGRFTISRDDSKNSLYLQMNSLKTEDTAVYYCRYVHYGAYYGVDAWGQGTTVTVSS VL: DIVMTQSPLSLPVTPGEPASISCRSSQSPVHSNRNTYLHWYQQKPGQAPRLLIYKVSNRFSGVPDRFSGSGSGTDFTLKISRVEAEDVGVYYCGQGTQVPYTFGQGTKLEIK | 0.96 |
| CE115HA000/GLS3000 L33D (antibody, IgG1, name in Kabat numbering, V domains shown, one-arm IgG1) VH: QVQLVESGGGVVQPGRSLRLSCAASGFTFSNAWMHWVRQAPGKGLEWVAQIKAKSNNYATYYAESVKGRFTISRDDSKNSLYLQMNSLKTEDTAVYYCRYVHYGAYYGVDAWGQGTTVTVSS VL: DIVMTQSPLSLPVTPGEPASISCRSSQSLVHSNRNTYDHWYQQKPGQAPRLLIYKVSNRFSGVPDRFSGSGSGTDFTLKISRVEAEDVGVYYCGQGTQVPYTFGQGTKLEIK | 37.5 |
| CE115HA000/GLS3000 L27bV (antibody, IgG1, name in Kabat numbering, V domains shown, one-arm IgG1) VH: QVQLVESGGGVVQPGRSLRLSCAASGFTFSNAWMHWVRQAPGKGLEWVAQIKAKSNNYATYYAESVKGRFTISRDDSKNSLYLQMNSLKTEDTAVYYCRYVHYGAYYGVDAWGQGTTVTVSS VL: DIVMTQSPLSLPVTPGEPASISCRSSQSVVHSNRNTYLHWYQQKPGQAPRLLIYKVSNRFSGVPDRFSGSGSGTDFTLKISRVEAEDVGVYYCGQGTQVPYTFGQGTKLEIK | 1.11 |
| CE115HA000/GLS3000 N28A (antibody, IgG1, name in Kabat numbering, V domains shown, one-arm IgG1) VH: QVQLVESGGGVVQPGRSLRLSCAASGFTFSNAWMHWVRQAPGKGLEWVAQIKAKSNNYATYYAESVKGRFTISRDDSKNSLYLQMNSLKTEDTAVYYCRYVHYGAYYGVDAWGQGTTVTVSS VL: DIVMTQSPLSLPVTPGEPASISCRSSQSLVHSARNTYLHWYQQKPGQAPRLLIYKVSNRFSGVPDRFSGSGSGTDFTLKISRVEAEDVGVYYCGQGTQVPYTFGQGTKLEIK | 4.18 |
| CE115HA000/GLS3000 L33E (antibody, IgG1, name in Kabat numbering, V domains shown, one-arm IgG1) VH: QVQLVESGGGVVQPGRSLRLSCAASGFTFSNAWMHWVRQAPGKGLEWVAQIKAKSNNYATYYAESVKGRFTISRDDSKNSLYLQMNSLKTEDTAVYYCRYVHYGAYYGVDAWGQGTTVTVSS VL: DIVMTQSPLSLPVTPGEPASISCRSSQSLVHSNRNTYEHWYQQKPGQAPRLLIYKVSNRFSGVPDRFSGSGSGTDFTLKISRVEAEDVGVYYCGQGTQVPYTFGQGTKLEIK | 0.83 |
| CE115HA000/GLS3000 L27bW (antibody, IgG1, name in Kabat numbering, V domains shown, one-arm IgG1) VH: QVQLVESGGGVVQPGRSLRLSCAASGFTFSNAWMHWVRQAPGKGLEWVAQIKAKSNNYATYYAESVKGRFTISRDDSKNSLYLQMNSLKTEDTAVYYCRYVHYGAYYGVDAWGQGTTVTVSS VL: DIVMTQSPLSLPVTPGEPASISCRSSQSWVHSNRNTYLHWYQQKPGQAPRLLIYKVSNRFSGVPDRFSGSGSGTDFTLKISRVEAEDVGVYYCGQGTQVPYTFGQGTKLEIK | 23.6 |
| CE115HA000/GLS3000 L33A (antibody, IgG1, name in Kabat numbering, V domains shown, one-arm IgG1) VH: QVQLVESGGGVVQPGRSLRLSCAASGFTFSNAWMHWVRQAPGKGLEWVAQIKAKSNNYATYYAESVKGRFTISRDDSKNSLYLQMNSLKTEDTAVYYCRYVHYGAYYGVDAWGQGTTVTVSS VL: DIVMTQSPLSLPVTPGEPASISCRSSQSLVHSNRNTYAHWYQQKPGQAPRLLIYKVSNRFSGVPDRFSGSGSGTDFTLKISRVEAEDVGVYYCGQGTQVPYTFGQGTKLEIK | 0.82 |
| CE115HA000/GLS3000 L27bM (antibody, IgG1, name in Kabat numbering, V domains shown, one-arm IgG1) VH: QVQLVESGGGVVQPGRSLRLSCAASGFTFSNAWMHWVRQAPGKGLEWVAQIKAKSNNYATYYAESVKGRFTISRDDSKNSLYLQMNSLKTEDTAVYYCRYVHYGAYYGVDAWGQGTTVTVSS VL: DIVMTQSPLSLPVTPGEPASISCRSSQSMVHSNRNTYLHWYQQKPGQAPRLLIYKVSNRFSGVPDRFSGSGSGTDFTLKISRVEAEDVGVYYCGQGTQVPYTFGQGTKLEIK | 1.31 |
| CE115HA000/GLS3000 L27bS (antibody, IgG1, name in Kabat numbering, V domains shown, one-arm IgG1) VH: QVQLVESGGGVVQPGRSLRLSCAASGFTFSNAWMHWVRQAPGKGLEWVAQIKAKSNNYATYYAESVKGRFTISRDDSKNSLYLQMNSLKTEDTAVYYCRYVHYGAYYGVDAWGQGTTVTVSS VL: DIVMTQSPLSLPVTPGEPASISCRSSQSSVHSNRNTYLHWYQQKPGQAPRLLIYKVSNRFSGVPDRFSGSGSGTDFTLKISRVEAEDVGVYYCGQGTQVPYTFGQGTKLEIK | 0.9 |
| CE115HA000/GLS3000 L27bI (antibody, IgG1, name in Kabat numbering, V domains shown, one-arm IgG1) VH: QVQLVESGGGVVQPGRSLRLSCAASGFTFSNAWMHWVRQAPGKGLEWVAQIKAKSNNYATYYAESVKGRFTISRDDSKNSLYLQMNSLKTEDTAVYYCRYVHYGAYYGVDAWGQGTTVTVSS VL: DIVMTQSPLSLPVTPGEPASISCRSSQSIVHSNRNTYLHWYQQKPGQAPRLLIYKVSNRFSGVPDRFSGSGSGTDFTLKISRVEAEDVGVYYCGQGTQVPYTFGQGTKLEIK | 1.17 |
| CE115HA000/GLS3000 L27bE (antibody, IgG1, name in Kabat numbering, V domains shown, one-arm IgG1) VH: QVQLVESGGGVVQPGRSLRLSCAASGFTFSNAWMHWVRQAPGKGLEWVAQIKAKSNNYATYYAESVKGRFTISRDDSKNSLYLQMNSLKTEDTAVYYCRYVHYGAYYGVDAWGQGTTVTVSS VL: DIVMTQSPLSLPVTPGEPASISCRSSQSEVHSNRNTYLHWYQQKPGQAPRLLIYKVSNRFSGVPDRFSGSGSGTDFTLKISRVEAEDVGVYYCGQGTQVPYTFGQGTKLEIK | 28.8 |
| CE115HA000/GLS3000 L33M (antibody, IgG1, name in Kabat numbering, V domains shown, one-arm IgG1) VH: QVQLVESGGGVVQPGRSLRLSCAASGFTFSNAWMHWVRQAPGKGLEWVAQIKAKSNNYATYYAESVKGRFTISRDDSKNSLYLQMNSLKTEDTAVYYCRYVHYGAYYGVDAWGQGTTVTVSS VL: DIVMTQSPLSLPVTPGEPASISCRSSQSLVHSNRNTYMHWYQQKPGQAPRLLIYKVSNRFSGVPDRFSGSGSGTDFTLKISRVEAEDVGVYYCGQGTQVPYTFGQGTKLEIK | 0.9 |
| CE115HA000/GLS3000 L33V (antibody, IgG1, name in Kabat numbering, V domains shown, one-arm IgG1) VH: QVQLVESGGGVVQPGRSLRLSCAASGFTFSNAWMHWVRQAPGKGLEWVAQIKAKSNNYATYYAESVKGRFTISRDDSKNSLYLQMNSLKTEDTAVYYCRYVHYGAYYGVDAWGQGTTVTVSS VL: DIVMTQSPLSLPVTPGEPASISCRSSQSLVHSNRNTYVHWYQQKPGQAPRLLIYKVSNRFSGVPDRFSGSGSGTDFTLKISRVEAEDVGVYYCGQGTQVPYTFGQGTKLEIK | 1.26 |
| CE115HA000/GLS3000 L33P (antibody, IgG1, name in Kabat numbering, V domains shown, one-arm IgG1) VH: QVQLVESGGGVVQPGRSLRLSCAASGFTFSNAWMHWVRQAPGKGLEWVAQIKAKSNNYATYYAESVKGRFTISRDDSKNSLYLQMNSLKTEDTAVYYCRYVHYGAYYGVDAWGQGTTVTVSS VL: DIVMTQSPLSLPVTPGEPASISCRSSQSLVHSNRNTYPHWYQQKPGQAPRLLIYKVSNRFSGVPDRFSGSGSGTDFTLKISRVEAEDVGVYYCGQGTQVPYTFGQGTKLEIK | 32.9 |
| CE115HA000/GLS3000 L27bY (antibody, IgG1, name in Kabat numbering, V domains shown, one-arm IgG1) VH: QVQLVESGGGVVQPGRSLRLSCAASGFTFSNAWMHWVRQAPGKGLEWVAQIKAKSNNYATYYAESVKGRFTISRDDSKNSLYLQMNSLKTEDTAVYYCRYVHYGAYYGVDAWGQGTTVTVSS VL: DIVMTQSPLSLPVTPGEPASISCRSSQSYVHSNRNTYLHWYQQKPGQAPRLLIYKVSNRFSGVPDRFSGSGSGTDFTLKISRVEAEDVGVYYCGQGTQVPYTFGQGTKLEIK | 22.2 |
